In PMC3431187 (Molecular cell, 2012):
No end group written: not given here. fluorescein = fluorescein label on the N-terminus, attached through a 6-aminohexanoyl (Ahx) spacer; Ahx = NCCCCCC(=O)O

B1: rhophilin 2-PDZ (PDZ domain of rhophilin-2), wild type (domain or fragment, human, UniProt Q8IUC4 515-593, looked up)
chain: RSIRFTAEEGDLGFTLRGNAPVQVHFLDPYCSASVAGAREGDYIVSIQLVDCKWLTLSEVMKLLKSFGEDEIEMKVVSL
B2: F-Ahx-EYLGLDVPV (N-fluorescein-labeled ErbB2 C-terminal peptide) (peptide)
peptide: {fluorescein-Ahx}-EYLGLDVPV

Tests used:
[1] = target: other peptides (tested with rhophilin 2-PDZ, Table S4); experiment: fluorescence polarisation
[2] = target: B2; experiment: fluorescence polarisation
[3] = target: B1; experiment: fluorescence polarisation
[4] = target: B1; experiment: pull-down
[5] = target: T1, rhophilin 2-PDZ K576A/K579A (human, UniProt Q8IUC4 515-593, K576A | K579A); experiment: pull-down
T1 sequence (looked up): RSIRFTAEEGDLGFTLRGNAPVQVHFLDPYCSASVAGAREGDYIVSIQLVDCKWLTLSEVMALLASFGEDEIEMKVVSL

[6] = target: T2, rhophilin 2-PDZ K576E/K579E (human, UniProt Q8IUC4 515-593, K576E | K579E); experiment: pull-down
T2 sequence (looked up): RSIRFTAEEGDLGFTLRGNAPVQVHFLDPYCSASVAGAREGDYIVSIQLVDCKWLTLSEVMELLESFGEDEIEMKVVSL

[7] = target: tamalin-PDZ (PDZ domain of tamalin), wild type (mouse, UniProt Q9JJA9 100-186); experiment: fluorescence polarisation
tamalin-PDZ (PDZ domain of tamalin), wild type, sequence (Q9JJA9 100-186): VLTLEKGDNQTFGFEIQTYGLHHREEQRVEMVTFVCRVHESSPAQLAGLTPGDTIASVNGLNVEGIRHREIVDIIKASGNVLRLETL

Binder: B1
- fold decrease in affinity with PM vesicles against without [1]: < 1.8 fold
- fold increase in affinity with PM vesicles against without [2]: 2 fold

Binder: B2
- binding result [3]: binds

Binder: {GST}-EYLGLDVPV [GST-EYLGLDVPV (GST fusion of the C-terminal peptide of ErbB2)]
- binding result [4]: binds
- binding result [5]: binds
- binding result [6]: binds

Binder: {fluorescein-Ahx}-IRDYTQSSSSL [F-Ahx-IRDYTQSSSSL (N-terminal-fluorescein-labeled mGluR5 C-terminal peptide)]
- binding result [7]: binds
